Consider 5 proteins from US20200131496A1 (REGENTS OF THE UNIVERSITY OF MINNESOTA, published 2020).

Data set [1] concerns the molecule itself. The data set can be described thus: ion exchange and size-exclusion chromatography; self-association, RNA-mediated.
Data set [2] concerns the molecule itself. Briefly: size-exclusion chromatography; self-association, RNA-mediated.
Data set [3] deals with the molecule itself. Briefly: size-exclusion chromatography (self-association).

Substitutions are numbered along the chain they refer to. Names may count otherwise.

B1: His-tagged mCherry(1-232)-3×Ala linker-A3H-HapII(1-183), wild-type (enzyme)
chain: AAAMALLTAETFRLQFNNKRRLRRPYYPRKALLCYQLTPQNGSTPTRGYFENKKKCHAEICFINEIKSMGLDETQCYQVTCYLTWSPCSSCAWELVDFIKAHDHLNLRIFASRLYYHWCKPQQDGLRLLCGSQVPVEVMGFPEFADCWENFVDHEKPLSFNPYKMLEELDKNSRAIKRRLDRIKQS
notes: range 1-232; Purified from E. coli with RNase A treatment; also called wild-type mCherry-A3H; mCherry-A3Hwt; not shown: N-terminal His tag from the pRSFDuet-1 vector and engineered HRV 3C protease site upstream of mCherry; mCherry residues 1-232, amplified from pRSETB-mCherry (Shaner et al. 2004)
On to B1, for which, in data set [1], the binding result is listed as “binds”.

B2: mCherry-A3H-E56A (enzyme)
chain: B1 chain with E59A
notes: range 1-232; Catalytic mutant; also called E56A catalytic mutant; not shown: N-terminal His tag from the pRSFDuet-1 vector and HRV 3C protease site; mCherry residues 1-232, amplified from pRSETB-mCherry
For B2, the binding result in data set [2] is on record as “binds”.

B3: mCherry-A3H-K52E (enzyme)
chain: B1 chain with K55E
notes: range 1-232; His tag present in size-exclusion chromatography; Crystal holds two A3H monomers bridged by duplex RNA; also called mCherry-K52E; pdb 6BOB; not shown: N-terminal His tag from the pRSFDuet-1 vector and HRV 3C protease site; tag removed with 3C proteas; mCherry residues 1-232, amplified from pRSETB-mCherry
As to B3, the binding result in data set [2] is on record as “binds”.

B4: mCherry-A3H-E56A-W115A-R175/6E (enzyme)
chain: B1 chain with E59A, W118A, R178E, R179E
notes: range 1-232; E56A added to prevent E. coli toxicity; preparation lacks RNA; also called W115A/R175/6E with E56A; not shown: N-terminal His tag from the pRSFDuet-1 vector and HRV 3C protease site; mCherry residues 1-232, amplified from pRSETB-mCherry
For the protein B4, in data set [3], the binding result is “no binding”.

B5: mCherry-A3H-E56A-K52E (enzyme)
chain: B1 chain with K55E, E59A
notes: range 1-232; Used in size-exclusion chromatography and in the second crystal structure (6BBO); also called mCherry-A3H-K52E-E56A; A3H-K52E-E56A; not shown: N-terminal His tag from the pRSFDuet-1 vector and HRV 3C protease site; crystallized by similar met; mCherry residues 1-232, amplified from pRSETB-mCherry
On to B5, for which the binding result in data set [2] is listed as “binds”.
